B1: Cadherin-1 (Mus musculus), P09803 (parent)
chain: MGARCRSFSALLLLLQVSSWLCQELEPESCSPGFSSEVYTFPVPERHLERGHVLGRVRFEGCTGRPRTAFFSEDSRFKVATDGTITVKRHLKLHKLETSFLVRARDSSHRELSTKVTLKSMGHHHHRHHHRDPASESNPELLMFPSVYPGLRRQKRDWVIPPISCPENEKGEFPKNLVQIKSNRDKETKVFYSITGQGADKPPVGVFIIERETGWLKVTQPLDREAIAKYILYSHAVSSNGEAVEDPMEIVITVTDQNDNRPEFTQEVFEGSVAEGAVPGTSVMKVSATDADDDVNTYNAAIAYTIVSQDPELPHKNMFTVNRDTGVISVLTSGLDRESYPTYTLVVQAADLQGEGLSTTAKAVITVKDINDNAPVFNPSTYQGQVPENEVNARIATLKVTDDDAPNTPAWKAVYTVVNDPDQQFVVVTDPTTNDGILKTAKGLDFEAKQQYILHVRVENEEPFEGSLVPSTATVTVDVVDVNEAPIFMPAERRVEVPEDFGVGQEITSYTAREPDTFMDQKITYRIWRDTANWLEINPETGAIFTRAEMDREDAEHVKNSTYVALIIATDDGSPIATGTGTLLLVLLDVNDNAPIPEPRNMQFCQRNPQPHIITILDPDLPPNTSPFTAELTHGASVNWTIEYNDAAQESLILQPRKDLEIGEYKIHLKLADNQNKDQVTTLDVHVCDCEGTVNNCMKAGIVAAGLQVPAILGILGGILALLILILLLLLFLRRRTVVKEPLLPPDDDTRDNVYYYDEEGGGEEDQDFDLSQLHRGLDARPEVTRNDVAPTLMSVPQYRPRPANPDEIGNFIDENLKAADSDPTAPPYDSLLVFDYEGSGSEAASLSSLNSSESDQDQDYDYLNEWGNRFKKLADMYGGGEDD

Variants of: B1
Settings: with skp2_human SKP2, Q13309
Sequence of skp2_human SKP2, Q13309 (Q13309 whole entry): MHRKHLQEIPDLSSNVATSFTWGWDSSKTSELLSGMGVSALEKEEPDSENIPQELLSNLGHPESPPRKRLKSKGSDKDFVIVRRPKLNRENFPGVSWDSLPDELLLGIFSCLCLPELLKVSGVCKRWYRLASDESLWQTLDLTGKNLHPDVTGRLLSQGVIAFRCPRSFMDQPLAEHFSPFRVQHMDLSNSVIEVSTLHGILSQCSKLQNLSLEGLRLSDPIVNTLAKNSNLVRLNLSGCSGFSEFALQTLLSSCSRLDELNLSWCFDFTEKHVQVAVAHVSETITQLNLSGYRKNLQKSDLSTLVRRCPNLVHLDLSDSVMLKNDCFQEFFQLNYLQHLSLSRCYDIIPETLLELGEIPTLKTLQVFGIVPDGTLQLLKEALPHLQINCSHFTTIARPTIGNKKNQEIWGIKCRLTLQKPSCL

Variant | effect of a mutation on the interaction
S840A;S842A;S846A;S849A;S852A;S855A | decreasing interaction strength

Source: IntAct's records for PubMed 22770219
